Source: patent US20220306750A1 (CITY OF HOPE, published 2022)
Read-outs that look alike come from different tables or passages of the source.

Key:
[1] = target: T1, interleukin-1 receptor accessory protein (IL1RAP) on AML target cells (human, UniProt Q9NPH3 21-570); assay: cell-based or functional assay
T1 sequence (looked up): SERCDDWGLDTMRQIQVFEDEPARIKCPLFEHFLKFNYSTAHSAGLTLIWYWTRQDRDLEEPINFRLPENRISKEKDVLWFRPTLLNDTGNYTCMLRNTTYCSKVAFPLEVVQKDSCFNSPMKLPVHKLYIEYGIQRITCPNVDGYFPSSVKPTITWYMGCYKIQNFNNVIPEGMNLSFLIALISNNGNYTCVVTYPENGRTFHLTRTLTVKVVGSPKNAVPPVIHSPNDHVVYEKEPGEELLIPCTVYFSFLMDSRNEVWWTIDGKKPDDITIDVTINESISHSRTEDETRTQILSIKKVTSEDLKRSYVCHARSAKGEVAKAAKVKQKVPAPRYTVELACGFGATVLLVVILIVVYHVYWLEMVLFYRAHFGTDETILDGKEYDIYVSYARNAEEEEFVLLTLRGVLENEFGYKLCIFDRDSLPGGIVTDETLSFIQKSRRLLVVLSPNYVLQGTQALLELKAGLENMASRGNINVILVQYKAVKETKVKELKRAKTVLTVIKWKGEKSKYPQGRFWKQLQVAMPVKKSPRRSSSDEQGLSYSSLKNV

[2] = target: T2, interleukin-1 receptor accessory protein (IL1RAP), antigen of the ELISA and phage selection (UniProt Q9NPH3 21-367, limits assumed); assay: ELISA, scFv-Fc on IL1RAP
T2 sequence (looked up): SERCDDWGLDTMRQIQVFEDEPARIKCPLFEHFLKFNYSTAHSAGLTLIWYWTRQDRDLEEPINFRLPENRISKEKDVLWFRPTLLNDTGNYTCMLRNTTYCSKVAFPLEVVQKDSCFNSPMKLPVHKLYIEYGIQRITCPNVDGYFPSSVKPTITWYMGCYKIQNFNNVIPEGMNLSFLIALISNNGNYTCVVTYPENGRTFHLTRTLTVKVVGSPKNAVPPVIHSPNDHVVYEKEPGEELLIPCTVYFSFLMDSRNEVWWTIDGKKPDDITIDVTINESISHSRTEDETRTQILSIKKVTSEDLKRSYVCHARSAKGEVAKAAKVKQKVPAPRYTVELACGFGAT

[3] = target: T2, interleukin-1 receptor accessory …; assay: ELISA, scFv-Fc on IL1RAP; remark: listed apart in the source

B1: anti-IL1RAP antibody clone 2E12 (Fc fusion)
VH: PGAAAGVGGGLVQPGGSLRLSCEASGFTFSRYWMHWVRQAPGKGLVWVSRIHTDGSSISYADSVKGRFTISRDNAKNTLYLQMNSLRAEDTAVYYCARDIGGGYSYGSVDYWGQGTLVTVSS
VL: QPVLTQSPSVSVAPGKTTRITCGGDNIGSKSVHWFQQKPGQAPVLVVFGGGDRPSGIPERFSGSNSGNTATLIISGVEGGDEADYYCQVWDGSTDHYIFGAGTMVTVL
notes: Tested as scFv-Fc
B1 was tested, and the “cell lysis %-1” value [1] was 27.2%, the “cell lysis %-2” value [1] was 28.7% and the “cell lysis %-3” value [1] was 23.7%. It also gave a cell lysis %-average [1] of 26.5%, an EC50 [2] of 85.4 µg/mL and an EC50 [3] of 854 nM.
